Measurements from the supplement of paper PMC10201428.
± gives the standard deviation of the averaged measurements.

Columns and labels:
[1] = test system: VchCAST RNA-guided transposition machinery (E. coli BL21(DE3) host, lacZ target); assay: relative integration efficiency (T-RL orientation) vs wild-type transposon end (log2 (normalized fold change)); transposon end mutated: right end (5 bp flank + 75 bp right end); higher = more efficient transposition
Summary of the method: (§1)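 Co-transformation of E. coli BL21(DE3) combined a pUC57 mini-transposon donor, holding barcoded pools of 1549 left-end or 1849 right-end variants, with a T7-driven plasmid encoding a CRISPR array, tniQ-cas8-cas7-cas6 and tnsA-tnsB-tnsC. After plating with 0.1 mM IPTG at 37°C for 18 h, input plasmids and genomic integration junctions were PCR-amplified and Illumina-sequenced across two biological output replicates, with four reference barcodes. Relative integration efficiency is the normalised, log-transformed output/input barcode fold change.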

[2] = test system: VchCAST RNA-guided transposition machinery (E. coli BL21(DE3) host, lacZ target); assay: relative integration efficiency (T-LR orientation) vs wild-type transposon end (log2 (normalized fold change)); transposon end mutated: right end (5 bp flank + 75 bp right end); higher = more efficient transposition
Summary of the method: as §1

Sequence | relative integration efficiency (log2) [1] | relative integration efficiency (log2) [2]
ACATTTGTTGATACAACCATAAGTTGATATTTTCAACCATAAAATGATAATTATCACAACCATAAAATGATAATTACTCTGATCATAGTCAGACCAACATTGCTACGACCCGTATTCGCACCGACAC | -0.00738 ± 0.052 | -0.774 ± 0.049
ACATTTGTTGATACAACCATAAGTTGATATTTTCAACCATAAAATGATAATTATCACAACCATAAAGTGATATTTACTCTGATCATAGTCAGACCAACATTGCTACGACCCGTATTCGCACCGACAC | 0.0134 ± 0.036 | -0.26 ± 0.094
ACATTTGTTGATACAACCATAAGTTGATATTTTCAACCATAAAATGATAATTATCACAACCATAAGTTGATATTTTCTCTGATCATAGTCAGACCAACATTGCTACGACCCGTATTCGCACCGACAC | -0.233 ± 0.067 | -0.119 ± 0.45
ACATTTGTTGATACAACCATAAGTTGATATTTTCAACCATAAAATGATAATTATCACAACCATATATTGATATCTCCTCTGATCATAGTCAGACCAACATTGCTACGACCCGTATTCGCACCGACAC | -0.078 ± 0.041 | 0.0384 ± 0.016
ACATTTGTTGATACAACCATAAGTTGATATTTTCAACCATAAAATGATAATTATCACACCCATAAATTGATAATTACTCTGATCATAGTCAGACCAACATTGCTACGACCCGTATTCGCACCGACAC | -0.162 ± 0.0022 | -0.376 ± 0.15
ACATTTGTTGATACAACCATAAGTTGATATTTTCAACCATAAAATGATAATTATCACACCCATAAATTGATATTGCCTCTGATCATAGTCAGACCAACATTGCTACGACCCGTATTCGCACCGACAC | 0.367 ± 0.094 | 0.105 ± 0.58
ACATTTGTTGATACAACCATAAGTTGATATTTTCAACCATAAAATGATAATTATCAGTGGGTATTTAACTATAACGCTCTGATCATAGTCAGACCAACATTGCTACGACCCGTATTCGCACCGACAC | -0.962 ± 0.12 | 2.48 ± 0.2
ACATTTGTTGATACAACCATAAGTTGATATTTTCAACCATAAAGTGATATTTATCACAACCATAAAATGATAATTACTCTGATCATAGTCAGACCAACATTGCTACGACCCGTATTCGCACCGACAC | -0.0697 ± 0.03 | -0.435 ± 0.24
ACATTTGTTGATACAACCATAAGTTGATATTTTCAACCATAAAGTGATATTTATCACAACCATAAAGTGATATTTACTCTGATCATAGTCAGACCAACATTGCTACGACCCGTATTCGCACCGACAC | 0.0778 ± 0.073 | -0.067 ± 0.078
ACATTTGTTGATACAACCATAAGTTGATATTTTCAACCATAAAGTGATATTTATCACAACCATAAGTTGATATTTTCTCTGATCATAGTCAGACCAACATTGCTACGACCCGTATTCGCACCGACAC | 0.119 ± 0.067 | -0.246 ± 0.14
ACATTTGTTGATACAACCATAAGTTGATATTTTCAACCATAAAGTGATATTTATCACAACCATATATTGATATCTCCTCTGATCATAGTCAGACCAACATTGCTACGACCCGTATTCGCACCGACAC | -0.136 ± 0.014 | -0.347 ± 0.053
ACATTTGTTGATACAACCATAAGTTGATATTTTCAACCATAAAGTGATATTTATCACACCCATAAATTGATAATTACTCTGATCATAGTCAGACCAACATTGCTACGACCCGTATTCGCACCGACAC | -0.109 ± 0.07 | -0.0467 ± 0.44
ACATTTGTTGATACAACCATAAGTTGATATTTTCAACCATAAAGTGATATTTATCACACCCATAAATTGATATTGCCTCTGATCATAGTCAGACCAACATTGCTACGACCCGTATTCGCACCGACAC | -0.032 ± 0.064 | -0.507 ± 0.46
ACATTTGTTGATACAACCATAAGTTGATATTTTCAACCATAAAGTGATATTTATCAGTGGGTATTTAACTATAACGCTCTGATCATAGTCAGACCAACATTGCTACGACCCGTATTCGCACCGACAC | -0.687 ± 0.11 | 2.69 ± 0.17
